# Reference: patent US20020090379A1, “INDUCING ANTIBODY RESPONSE AGAINST SELF-PROTEINS WITH THE AID OF FOREIGN T-CELL EPITOPES” (priority 1993, published 2002)
# Tests used:
# [1] = molecular target: A^k molecule (Mus musculus, UniProt P01910+P06343); assay: Competitive inhibition of radiolabelled peptide binding to affinity purified MHC class II A^k; conditions: 125I-labelled marker HEL(46-61)Y, cold peptide >550 μm, pH 5
# Description: (§1) Peptide-MHC complexes were obtained by incubating ^125I-labelled peptide (10-100 nM) with affinity purified MHC class II molecules (2- 10 μM) at room temperature for 3 days (S. Mouritsen, J Immunol. 148, 1438-1444, 1992). The following peptides were used as radiolabelled markers of binding: Hb(64-76)Y which binds strongly to the E^k molecule and HEL(46-61)Y which binds strongly to the A^k molecule. These complexes were incubated with large amounts of cold non radiolabelled peptide (>550 μm) which should be sufficient to inhibit totally all immunologically relevant MHC class II binding. Either the same peptides were used or were three different overlapping peptides representing the flanking regions as well as the entire OVA(325-336) sequence, containing the T cell epitope, which was substituted into ubiquitin (see Example 2). The three peptides were: TITLEPSQAVHAA (U(12-26)), PSQAVHAAHAEINEKE (U(19-34)) and HAEINEKEGIPPDQQ (U(27-41)). The reaction buffer contained 8 mM citrate, […], and 0.05% NP-40 (pH 5) and peptide-MHC class II complexes were separated (in duplicate) from free peptide by gel filtration using G25 spun columns. Both the radioaictivities of the excluded “void” volume and of the included “void” were measured by gamma spectrometry. The competitive inhibition of maximal binding (in percent) by addition of cold peptide was calculated.
# [2] = tested on: E^k molecule; assay: Competitive inhibition of radiolabelled peptide binding to affinity purified MHC class II E^k; parameters: species or system mouse; conditions: 125I-labelled marker Hb(64-76)Y, cold peptide >550 μm, pH 5
# Description: as §1
Substance,competitive inhibition of maximal binding by addition of cold peptide [1] [%],competitive inhibition of maximal binding by addition of cold peptide [2] [%]
"HAEINEKEGIPPDQQ [U(27-41), overlapping peptide of the OVA(325-336) region substituted into ubiquitin]",7.8,0.0
HEL(46-61): marker peptide which binds strongly to the A^k molecule; cold version used as competitor [reference compound],97.4,0.0
"PSQAVHAAHAEINEKE [U(19-34), overlapping peptide of the OVA(325-336) region substituted into ubiquitin]",44.6,12.2
"TITLEPSQAVHAA [U(12-26), overlapping peptide of the OVA(325-336) region substituted into ubiquitin]",35.3,45.6
